This is an account of results in patent US20250281573A1 (GENEROATH, published 2025).

The test concerns the target T1, TRAF2 (UniProt Q12933 1-501, limits assumed).
T1 sequence (looked up): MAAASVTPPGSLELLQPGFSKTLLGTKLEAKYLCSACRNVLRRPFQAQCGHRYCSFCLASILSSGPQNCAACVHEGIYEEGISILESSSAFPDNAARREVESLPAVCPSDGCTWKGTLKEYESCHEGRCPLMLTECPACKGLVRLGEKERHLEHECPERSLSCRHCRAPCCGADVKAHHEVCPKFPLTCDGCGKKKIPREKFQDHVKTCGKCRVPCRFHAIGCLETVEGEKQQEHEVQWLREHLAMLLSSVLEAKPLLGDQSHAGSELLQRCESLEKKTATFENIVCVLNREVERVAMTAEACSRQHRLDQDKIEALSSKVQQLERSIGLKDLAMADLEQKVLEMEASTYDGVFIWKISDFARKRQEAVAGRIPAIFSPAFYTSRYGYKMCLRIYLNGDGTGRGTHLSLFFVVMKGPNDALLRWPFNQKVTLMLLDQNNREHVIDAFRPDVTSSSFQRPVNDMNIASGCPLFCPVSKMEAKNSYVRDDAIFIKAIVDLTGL
Nature of the test: TRAF2 immunoprecipitation from transfected HEK293 cells, anti-Myc immunoblot (FIG. 9A). The protocol:
To understand how DX2 compromises the apoptotic activity of TNF-a signaling, we evaluated the ability of DX2 to compete with AIMP2 for the interaction with TRAF2 and to affect NF-kB-dependent transcriptional activity. For the co-immunoprecipitation assay, HEK293 cells were transfected with 0, 1 or 2 μg of Myc-tagged DX2 or AIMP2 expression plasmid (FIG. 9A). The expression of endogenous (Endo) and exogenous (Exo) AIMP2 and DX2 was confirmed by immunoblotting of whole cell lysates (WCL) with anti-AIMP2 antibody. TRAF2 was immunoprecipitated with its specific antibody and AIMP2 or DX2 bound to TRAF2 were detected with anti-Myc antibody.
For orientation: Immunoblotting shows a protein as a band on a membrane.

B1: Myc-tagged DX2 (other)
chain: MPMYQVKPYHGGGAPLRVELPTCMYRLPNVHGRSYGPAPGAGHVQDYGALKDIVINANPASPPLSLLVLHRLLCEHFRVLSTVHTHSSVKSVPENLLKCFGEQNKKQPRQDYQLGFTLIWKNVPKTQMKFSIQTMCPIEGEGNIARFLFSLFGQKHNAVNATLIDSWVDIAIFQLKEGSSKEKAAVFRSMNSALGKSPWLAGNELTVADVVLWSVLQQIGGCSVTVPANVQRWMRSCENLAPFNTALKLLK
notes: also called Myc-DX2; not shown: Myc tag
As to B1, the binding result is on record as “binds”.
